Article PMC7961048 (2021)
Non-standard residues stand in square brackets, D forms with d. No end group written: not given here. *: point of attachment. Biotin = O=C1N[C@H]2[C@H](CS[C@H]2CCCCC(=O)*)N1; pT = C[C@@H](OP(=O)(O)O)[C@H](N)C(=O)O; ttds = NCCCOCCOCCOCCCNC(=O)CCC(=O)*

How the values were obtained:
[1] = molecular target: T1, unfused 14-3-3ε devoid of the flexible C-terminal tail (human); assay: FP
T1 chain: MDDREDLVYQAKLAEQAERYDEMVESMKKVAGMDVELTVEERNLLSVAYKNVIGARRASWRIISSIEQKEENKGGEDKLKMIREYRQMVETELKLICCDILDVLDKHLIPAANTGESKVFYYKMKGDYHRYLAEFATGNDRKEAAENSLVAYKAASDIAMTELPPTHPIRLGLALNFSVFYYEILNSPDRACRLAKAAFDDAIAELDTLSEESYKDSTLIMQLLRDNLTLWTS

[2] = molecular target: T2, full-length human 14-3-3η fused to the C terminus of MBP (human, UniProt Q04917 1-246); assay: FP
T2 chain: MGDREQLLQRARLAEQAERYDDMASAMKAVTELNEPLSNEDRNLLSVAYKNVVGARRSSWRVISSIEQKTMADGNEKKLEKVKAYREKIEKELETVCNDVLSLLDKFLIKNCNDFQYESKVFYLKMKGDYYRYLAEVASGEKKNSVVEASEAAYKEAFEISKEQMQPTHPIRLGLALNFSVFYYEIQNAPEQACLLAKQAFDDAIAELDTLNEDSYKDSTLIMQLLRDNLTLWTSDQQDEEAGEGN

[3] = molecular target: T3, full-length human 14-3-3β fused to the C terminus of MBP (human, UniProt P31946 1-246); assay: FP
T3 chain: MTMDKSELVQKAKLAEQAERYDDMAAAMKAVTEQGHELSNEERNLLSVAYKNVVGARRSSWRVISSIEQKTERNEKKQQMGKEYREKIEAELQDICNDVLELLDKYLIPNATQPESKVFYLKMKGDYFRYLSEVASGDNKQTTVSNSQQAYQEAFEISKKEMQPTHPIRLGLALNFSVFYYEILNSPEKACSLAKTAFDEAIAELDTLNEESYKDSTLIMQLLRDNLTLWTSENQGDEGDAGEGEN

[4] = molecular target: T4, full-length human 14-3-3τ fused to the C terminus of MBP (human, UniProt P27348 1-245); assay: FP
T4 chain: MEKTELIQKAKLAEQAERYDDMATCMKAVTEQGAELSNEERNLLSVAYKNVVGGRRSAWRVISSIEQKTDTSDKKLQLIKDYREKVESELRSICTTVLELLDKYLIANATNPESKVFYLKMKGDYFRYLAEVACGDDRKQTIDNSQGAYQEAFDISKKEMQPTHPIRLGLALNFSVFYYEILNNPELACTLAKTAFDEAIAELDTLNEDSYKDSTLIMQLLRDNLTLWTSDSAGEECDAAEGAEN

[5] = molecular target: T5, full-length human 14-3-3ζ fused to the C terminus of MBP (human, UniProt P63104 1-245); assay: FP
T5 chain: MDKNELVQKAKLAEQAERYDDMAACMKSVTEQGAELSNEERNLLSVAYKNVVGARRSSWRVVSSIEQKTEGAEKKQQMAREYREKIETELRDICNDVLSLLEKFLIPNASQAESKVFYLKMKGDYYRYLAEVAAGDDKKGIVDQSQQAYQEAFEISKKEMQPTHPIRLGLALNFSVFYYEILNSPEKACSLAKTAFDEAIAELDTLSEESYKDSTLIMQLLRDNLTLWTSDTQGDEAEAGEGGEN

[6] = molecular target: T6, unfused 14-3-3β devoid of the flexible C-terminal tail (human); assay: FP
T6 chain: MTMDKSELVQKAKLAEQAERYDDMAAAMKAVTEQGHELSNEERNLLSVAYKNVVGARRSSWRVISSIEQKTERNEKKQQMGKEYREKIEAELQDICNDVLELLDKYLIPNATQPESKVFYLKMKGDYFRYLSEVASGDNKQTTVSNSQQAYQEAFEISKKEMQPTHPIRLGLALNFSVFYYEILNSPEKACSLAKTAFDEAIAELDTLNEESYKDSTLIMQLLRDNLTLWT

[7] = molecular target: T7, full-length human 14-3-3γ fused to the C terminus of MBP (human, UniProt P61981 1-247); assay: FP; +FSC
T7 chain: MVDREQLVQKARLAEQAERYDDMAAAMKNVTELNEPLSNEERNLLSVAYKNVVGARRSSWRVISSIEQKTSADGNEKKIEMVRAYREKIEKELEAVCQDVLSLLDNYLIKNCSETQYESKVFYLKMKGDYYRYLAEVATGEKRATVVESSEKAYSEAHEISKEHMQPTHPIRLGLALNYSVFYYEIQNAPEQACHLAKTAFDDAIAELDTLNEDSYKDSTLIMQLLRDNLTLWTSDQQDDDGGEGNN

[8] = molecular target: T5, full-length human 14-3-3ζ fused to the …; assay: FP; +FSC
[9] = molecular target: T8, full-length human 14-3-3σ fused to the C terminus of MBP (human, UniProt P31947 1-248); assay: FP
T8 chain: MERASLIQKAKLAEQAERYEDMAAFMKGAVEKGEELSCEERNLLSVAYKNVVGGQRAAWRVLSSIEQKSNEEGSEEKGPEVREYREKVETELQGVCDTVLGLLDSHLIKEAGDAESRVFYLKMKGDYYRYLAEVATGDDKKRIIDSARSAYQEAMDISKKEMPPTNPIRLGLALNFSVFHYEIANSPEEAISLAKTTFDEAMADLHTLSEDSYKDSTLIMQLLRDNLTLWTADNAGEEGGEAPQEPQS

[10] = molecular target: T5, full-length human 14-3-3ζ fused to the …; assay: FP; with FSC

{Biotin-ttds}-SSRTRRE[pT]QL [HPV16 E6 phospho-PBM peptide p16E6]
Kd [1]: 186 µM
Kd [2]: 80.5 µM
Kd [3]: 159 µM
Kd [4]: 144 µM
Kd [5]: 73.6 µM
Kd [6]: 148 µM
Kd [7]: 91.7 µM
Kd [8]: 161 µM

{Biotin-ttds}-RLQRRRE[pT]QV [HPV18 E6 phospho-PBM peptide p18E6]
Kd [1]: 66.2 µM
Kd [9]: 139 µM
Kd [3]: 42.2 µM
Kd [4]: 37.8 µM
Kd [5]: 22.4 µM
Kd [6]: 42.3 µM
Kd [7]: 19.3 µM
Kd [8]: 37.3 µM
Kd [10]: 37.3 µM
